Assay in all cases: FRET or BRET
Background: BRET reads energy transfer from a luciferase to a nearby fluorophore.

Test [1] has as its target Monocysteine-reactive type A CCK receptor construct T341C, derivatized with Alexa^546 at position 341 (UniProt P30551).
Test [2] addresses Monocysteine-reactive type A CCK receptor construct A204C, derivatized with Alexa^546 at position 204 (UniProt P30551).
Test [3] concerns the target Monocysteine-reactive type A CCK receptor construct C94, derivatized with Alexa^546 at position 94 (UniProt P30551).
Test [4] deals with Monocysteine-reactive type A CCK receptor construct N102C, derivatized with Alexa^546 at position 102 (UniProt P30551).

For Aladan^24-CCK (peptide), the efficiency of energy transfer is 64% in test [1], 53% in test [2], 56% in test [3] and 64% in test [4].

Turning to Aladan^29-CCK (peptide), the efficiency of energy transfer in test [1] is 67%; in test [2], 54%; in test [3], 55%; in test [4], 66%.

As for Aladan^33-CCK (peptide), the efficiency of energy transfer in test [1] came out at 66%; in test [2] it was 53%; in test [3] it was 58%; in test [4] it was 70%.

The values above are taken from publication PMC3648886.
